FireProtDB (doi:10.1021/bi0362267)

B1: Ribonuclease, P00648 (parent)
chain: MMKMEGIALKKRLSWISVCLLVLVSAAGMLFSTAAKTETSSHKAHTEAQVINTFDGVADYLQTYHKLPDNYITKSEAQALGWVASKGNLADVAPGKSIGGDIFSNREGKLPGKSGRTWREADINYTSGFRNSDRILYSSDWLIYKTTDHYQTFTKIR

Variants of: B1
Settings: Bacillus amyloliquefaciens, pH 6.3, Thermal, CD, Mes 50 mM, structure 1BNI, whole UniProt chain shown; for ddG of mutation (higher = less stable) / unfolding free energy: 25 °C

Variant	Tm	change of melting temperature, mutant - wild type (higher = more stable)	unfolding enthalpy (van 't Hoff)	ddG of mutation (higher = less stable)	unfolding free energy
E120G	39.5 °C	-12.7 °C	101 kcal/mol	–	–
Y144G	34.4 °C	-17.9 °C	103 kcal/mol	6.6 kcal/mol	2.9 kcal/mol
Y64G	42 °C	-10.3 °C	117 kcal/mol	–	–
I143G	36.5 °C	-15.7 °C	110 kcal/mol	–	–
D59G	50 °C	-2.3 °C	129 kcal/mol	1.2 kcal/mol	8.3 kcal/mol
D59A	51.2 °C	-1 °C	153 kcal/mol	-1.1 kcal/mol	10.6 kcal/mol
Y60G	36.6 °C	-15.6 °C	92.7 kcal/mol	6.4 kcal/mol	3.1 kcal/mol
I135G	31.4 °C	-20.8 °C	100 kcal/mol	7.4 kcal/mol	2.1 kcal/mol
R119G	46.5 °C	-5.7 °C	123 kcal/mol	2.5 kcal/mol	7 kcal/mol
L136G	43.5 °C	-8.7 °C	58.5 kcal/mol	7 kcal/mol	2.5 kcal/mol
T147G	–	–	–	2.8 kcal/mol	6.7 kcal/mol
I102G	–	–	–	3.1 kcal/mol	6.4 kcal/mol
L142G	43.1 °C	-9.1 °C	98.5 kcal/mol	4.7 kcal/mol	4.8 kcal/mol
Q62G	50.2 °C	-2 °C	123 kcal/mol	1.6 kcal/mol	7.9 kcal/mol
Q62A	51.4 °C	-0.9 °C	137 kcal/mol	0.2 kcal/mol	9.3 kcal/mol
